According to PMC2175255:

Target: erbB2 receptor tyrosine kinase (rat (endogenous in primary Schwann cells)) (UniProt P06494)
Test: co-IP

Chain of UniProt P06494 (P06494 23-1257): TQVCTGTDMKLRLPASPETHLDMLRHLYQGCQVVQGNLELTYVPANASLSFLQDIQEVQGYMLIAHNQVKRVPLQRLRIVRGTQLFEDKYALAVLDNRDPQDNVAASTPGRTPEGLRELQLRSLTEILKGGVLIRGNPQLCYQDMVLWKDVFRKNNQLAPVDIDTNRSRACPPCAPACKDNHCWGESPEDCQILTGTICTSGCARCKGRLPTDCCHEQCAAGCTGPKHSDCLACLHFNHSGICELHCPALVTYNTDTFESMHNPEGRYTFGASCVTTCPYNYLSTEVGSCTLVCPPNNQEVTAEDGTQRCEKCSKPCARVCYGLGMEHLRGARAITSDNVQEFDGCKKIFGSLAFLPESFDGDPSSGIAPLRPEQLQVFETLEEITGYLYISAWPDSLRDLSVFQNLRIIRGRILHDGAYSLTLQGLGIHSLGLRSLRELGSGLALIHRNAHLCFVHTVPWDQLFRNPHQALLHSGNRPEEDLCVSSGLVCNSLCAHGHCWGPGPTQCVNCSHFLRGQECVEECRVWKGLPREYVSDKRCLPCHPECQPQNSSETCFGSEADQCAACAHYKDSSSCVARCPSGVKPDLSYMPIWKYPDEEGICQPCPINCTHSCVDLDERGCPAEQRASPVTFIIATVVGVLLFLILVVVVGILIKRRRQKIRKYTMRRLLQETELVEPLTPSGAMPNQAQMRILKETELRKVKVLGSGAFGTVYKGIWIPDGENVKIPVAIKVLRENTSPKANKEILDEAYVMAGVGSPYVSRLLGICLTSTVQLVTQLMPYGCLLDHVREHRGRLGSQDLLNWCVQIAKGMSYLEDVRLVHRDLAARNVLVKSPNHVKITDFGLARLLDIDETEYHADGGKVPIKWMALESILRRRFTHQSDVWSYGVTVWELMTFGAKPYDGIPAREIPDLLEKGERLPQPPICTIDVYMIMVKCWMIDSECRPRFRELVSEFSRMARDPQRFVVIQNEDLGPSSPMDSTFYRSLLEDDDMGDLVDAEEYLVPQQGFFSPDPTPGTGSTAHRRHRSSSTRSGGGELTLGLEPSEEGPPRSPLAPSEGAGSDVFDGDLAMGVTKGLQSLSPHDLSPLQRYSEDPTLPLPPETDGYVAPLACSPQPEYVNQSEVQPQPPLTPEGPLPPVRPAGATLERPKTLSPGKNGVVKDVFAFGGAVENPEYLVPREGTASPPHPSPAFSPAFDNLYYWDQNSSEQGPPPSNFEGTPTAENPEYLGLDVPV

fold CD44 co-immunoprecipitated with rh-GGF2 against untreated cells: 2 fold
Substance: CD44 transmembrane glycoprotein (from UniProt P26051 22-503) (natural protein)
